Data on 43 molecules can be found in US20120213844A1 (ALZA, published 2012).

Read-outs that look alike come from different tables or passages of the source. Positions of bridges follow the written chain, without caps; N, C: chain ends. No end group written: not given here.

Assay [1] concerns the target T1, sEGFR-MMB (dimeric sEGFR mimetibody) (human).
T1 construct: Disulfide-linked homodimer: QIQ, sEGFR, flexible linker, J segment, human IgG1 hinge, CH2, CH3; also called sEGFR-Fc; dimeric EGFR
As to the kind of experiment: phage ELISA on coated sEGFR-MMB, chemiluminescence (background typically <200 units). For orientation: An ELISA detects its analyte on a solid surface through an enzyme-linked reagent.
Description: (§1) The protein solution was removed and wells were rinsed twice with Tris-Buffered Saline containing 0.05% Tween-20 (TBS-T) using a plate washer (Embla). The wells were blocked with Starting Block in TBS for 1 hr at room temperature and rinsed twice with TBS-T. An equal volume of phage supernatant and Starting Block in TBS were incubated in the wells for 1 hr at room temperature, and the wells were rinsed five times with TBS-T. Anti-M13/horseradish peroxidase conjugate (Amersham), diluted 1:5000 in Starting Block in TBS, was added into the wells and incubated for 1 hour at room temperature, and then the wells were rinsed five times with TBS-T. Finally, chemiluminescent peroxidase substrate (Roche) was added to the wells, and chemiluminescence was measured on a Tecan plate reader.

The target of assay [2] is T1, sEGFR-MMB (dimeric sEGFR mimetibody). The assay is described as above. This is another data set of the same source.
Description: as §1
Assay [3] concerns the target T2, human EGFR on tumor cells (human, UniProt P00533 25-1210).
T2 construct: whole, on cells; also called EGFR on A431 cells; EGFR on MDA-MB-468 cells
As to the kind of experiment: flow cytometry on A431 cells, without EGF. On the technique in general: A flow cytometer gives signals particle by particle.

The target in assay [4] is T1, sEGFR-MMB (dimeric sEGFR mimetibody). As to the kind of experiment: phage ELISA on coated sEGFR-MMB, chemiluminescence (background typically <200 units). This is another data set of the same source.
Description: as §1
The target is the same in assay [5]. The assay is described as above. The source holds these as a separate data set.
Description: as §1
For assay [6] the target is unchanged. The description is as above. This is another data set of the same source.
Description: as §1
Assay [7] addresses T3, Control-MMB (CNTO 360) (Homo sapiens (Human), UniProt P0DOX5 111-449 = IgG part).
T3 construct: MMB scaffold without a peptide; described as human IgG1 heavy chain dimer lacking the variable and most of the CH1 domains; also called blank mimetibody scaffold protein
Kind of assay: phage ELISA, Control-MMB coated at 5 ug/ml.
Description: The plates were held overnight at room temperature, washed twice with TBST (0.5M Tris Base, 9% NaCl, 0.05% tween, pH 7.6), and loaded with 200 μL per well of Starting Block (Pierce). […] The plates were held at room temperature for 1.5 hours for blocking. Plates were then washed twice with TBST and phage were added. The phage solutions were crude phage supernatant from overnight cultures diluted four-fold with Starting Block. After a one-hour incubation, the plates were washed thrice with TBST and 100 μL of a 1:5000 dilution of phage binding antibody conjugate (α-M13-HRP) was added to the wells. […] After a one-hour incubation the plates were washed five times with TBST, 100 μL of POD (BM Chemiluminescence ELISA substrate; Roche Applied Science) was added, and chemiluminescene recorded.

In assay [8] the target is T3, Control-MMB (CNTO 360). As to the kind of experiment: phage ELISA on coated Control-MMB in the presence of EGF [panel B].
Description: as §1
(§2) Confirmatory Phage ELISA. […] The binding reaction was incubated for 1 hr at room temperature, and then bound phage were detected with anti-M13/HRP as above. For ELISAs with biotinylated receptors, streptavidin at 5 μg/ml was coated in the wells overnight at 4° C. […] The wells were rinsed with TBS-T and then blocked with Starting Block. Bound phage were washed and detected with anti-M13/HRP as described above.
The next assay concerns the target T4, Streptavidin.
T4 construct: also called Streptavidin alone; SA
As to the kind of experiment: phage ELISA on streptavidin-coated wells without receptor [panel C].

The target of assay [9] is T2, human EGFR on tumor cells. As to the kind of experiment: cell-based or functional assay.

T1 sequence (chain, as listed by the source limits assumed): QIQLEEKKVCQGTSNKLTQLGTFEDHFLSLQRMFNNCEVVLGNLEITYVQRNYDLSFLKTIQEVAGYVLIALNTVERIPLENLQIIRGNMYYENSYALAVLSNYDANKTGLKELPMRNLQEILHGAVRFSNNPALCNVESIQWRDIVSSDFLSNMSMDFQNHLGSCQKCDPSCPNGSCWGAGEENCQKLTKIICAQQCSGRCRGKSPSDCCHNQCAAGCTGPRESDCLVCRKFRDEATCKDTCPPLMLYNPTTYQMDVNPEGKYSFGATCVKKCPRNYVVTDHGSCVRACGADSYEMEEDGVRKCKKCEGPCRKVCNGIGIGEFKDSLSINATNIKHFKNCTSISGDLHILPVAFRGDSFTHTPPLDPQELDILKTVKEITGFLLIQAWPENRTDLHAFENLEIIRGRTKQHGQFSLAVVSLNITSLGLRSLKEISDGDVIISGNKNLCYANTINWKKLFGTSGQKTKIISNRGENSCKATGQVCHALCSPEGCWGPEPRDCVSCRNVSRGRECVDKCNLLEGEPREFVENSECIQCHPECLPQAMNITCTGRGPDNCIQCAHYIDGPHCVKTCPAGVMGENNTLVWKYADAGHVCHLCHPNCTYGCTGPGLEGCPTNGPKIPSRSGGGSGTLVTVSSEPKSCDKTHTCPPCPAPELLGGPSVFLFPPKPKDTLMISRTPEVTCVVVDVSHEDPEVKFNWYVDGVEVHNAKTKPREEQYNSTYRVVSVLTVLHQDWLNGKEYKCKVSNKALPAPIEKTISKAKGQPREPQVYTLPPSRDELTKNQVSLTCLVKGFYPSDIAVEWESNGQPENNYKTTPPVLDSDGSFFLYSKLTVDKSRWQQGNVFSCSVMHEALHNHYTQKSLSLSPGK
Description for Streptavidin: as §1, §2

B1: phage clone P175 (SEQ ID NO: 13) (peptide)
chain: GGGLPDDSLPELICKVRGGGGSGGSGG
notes: pIX phagemid display, library S15; also called PP175; not shown: M13 phage coat protein pIX (MSVL...)
The molecule B1 displayed an ELISA in [1] of 6790 units.

B2: phage clone displaying SEQ ID NO: 41 (S19 hit) (peptide)
chain: GGGCDCREAVSASLVCRYGGGSGGSGG
notes: pIX phagemid display, library S19; not shown: M13 phage coat protein pIX (MSVL...)
For B2, in assay [2], the ELISA was found to be 3350 units.

B3: phage clone displaying SEQ ID NO: 14 (S15 hit) (peptide)
chain: GGGHVSLQSLPELICVVSGGGSGGSGG
notes: pIX phagemid display, library S15; not shown: M13 phage coat protein pIX (MSVL...)
The molecule B3 came in with an ELISA in assay [1] of 1360 units.

B4: P190-MMB construct 4316 (Fc fusion)
chain: GGDPCTWEVWGRECLQGGGGSGGGGSGGGGSGGGGSCPPCPAPEAAGGPSVFLFPPKPKDTLMISRTPEVTCVVVDVSQEDPEVQFNWYVDGVEVHNAKTKPREEQFNSTYRVVSVLTVLHQDWLNGKEYKCKVSNKGLPSSIEKTISKAKGQPREPQVYTLPPSQEEMTKNQVSLTCLVKGFYPSDIAVEWESNGQPENNYKTTPPVLDSDGSFFLYSRLTVDKSRWQEGNVFSCSVMHEALHNHYTQKSLSLSLGK
notes: Human IgG4 hinge-CH2-CH3 with two Leu to Ala
Take B4: the “fold increase in FACS signal” value in assay [3] was approximately 10 fold.

B5: phage clone P177 (SEQ ID NO: 52) (peptide)
chain: GGGDACTMVFLWCSLGGGSGGSGG
notes: pIX phagemid display, library S16; also called PP177; not shown: M13 phage coat protein pIX (MSVL...)
Molecule B5 registered an ELISA in [4] of 8660 units.

B6: phage clone displaying SEQ ID NO: 40 (S19 hit) (peptide)
chain: GGGAFCRLDFNQWLTCLVGGGSGGSGG
notes: as for B2
On to B6, for which the ELISA in assay [2] stood at 2580 units.

B7: phage clone P179 (SEQ ID NO: 39) (peptide)
chain: GGGGPCVLIRDYYLLCLEGGGSGGSGG
notes: pIX phagemid display, library S19; also called PP179; not shown: M13 phage coat protein pIX (MSVL...)
With B7, the ELISA in assay [2] was found to be 14000 units.

B8: phage clone displaying SEQ ID NO: 49 (S20 hit) (peptide)
chain: GGGLLCATTSFRDWFVCFTGGGSGGSGG
notes: pIX phagemid display, library S20; not shown: M13 phage coat protein pIX (MSVL...)
In turn, B8 gave an ELISA in assay [5] of 4510 units.

B9: phage clone displaying SEQ ID NO: 35 (S18 hit) (peptide)
chain: GGGRGCVVFGDNIYCIVGGGSGGSGG
notes: pIX phagemid display, library S18; not shown: M13 phage coat protein pIX (MSVL...)
For the molecule B9, the ELISA in assay [6] is 22000 units.

B10: phage clone displaying SEQ ID NO: 10 (S15 hit) (peptide)
chain: GGGYRLFVDESIFFCTRLGGGSGGSGG
notes: as for B3
Turning to B10, in assay [1], the ELISA stood at 3080 units.

B11: phage clone displaying SEQ ID NO: 12 (S15 hit) (peptide)
chain: GGGVSGILPILVCHPAATGGGSGGSGG
notes: as for B3
Turning to B11, the ELISA in assay [1] is 1110 units.

B12: phage clone P178 (SEQ ID NO: 53) (peptide)
chain: GGGRWCYFWWITICELGGGSGGSGG
notes: pIX phagemid display, library S17; also called PP178; not shown: M13 phage coat protein pIX (MSVL...)
Molecule B12 yielded an ELISA in assay [4] of 7910 units.

B13: phage clone displaying SEQ ID NO: 32 (S18 hit) (peptide)
chain: GGGSDCVLFGSKLFCSAGGGSGGSGG
notes: as for B9
For B13, in assay [6], the ELISA came to 35300 units.

B14: phage displaying P190 on pIX (SEQ ID NO: 55) (peptide)
chain: GGGDPCTWEVWGRECLQGGGSGGSGG
notes: pIX phagemid display, library S18; on average one peptide per particle; also called PHPEP190; pIX-190; not shown: M13 phage coat protein pIX (MSVL...)
For B14, in the assay with Control-MMB (CNTO 360) [7], the binding result is reported as “no binding”.

B15: phage clone displaying SEQ ID NO: 25 (S18 hit) (peptide)
chain: GGGRDCIIFDKTVYCVIGGGSGGSGG
notes: as for B9
Molecule B15 had an ELISA in [6] of 17100 units.

B16: phage clone displaying SEQ ID NO: 29 (S18 hit) (peptide)
chain: GGGRACITFGKVVYCEVGGGSGGSGG
notes: as for B9
Molecule B16 showed an ELISA in assay [6] of 30700 units.

B17: phage clone displaying SEQ ID NO: 34 (S18 hit) (peptide)
chain: GGGYDCVSFGAVAYCPQGGGSGGSGG
notes: as for B9
B17 returned an ELISA in assay [6] of 3200 units.

B18: phage clone displaying SEQ ID NO: 27 (S18 hit) (peptide)
chain: GGGDSCIQFANLLYCAIGGGSGGSGG
notes: as for B9
The molecule B18 displayed an ELISA in assay [6] of 53200 units.

B19: phage clone P173 (SEQ ID NO: 31) (peptide)
chain: GGGTDCVIFGLETYCLRGGGSGGSGG
notes: pIX phagemid display, library S18; also called PP173; not shown: M13 phage coat protein pIX (MSVL...)
For B19, the ELISA in assay [6] came out at 37900 units.

B20: phage clone displaying SEQ ID NO: 38 (S19 hit) (peptide)
chain: GGGYDCMIRADGSLICWCGGGSGGSGG
notes: as for B2
B20 registered an ELISA in assay [2] of 1290 units.

B21: phage clone displaying SEQ ID NO: 21 (S15 hit) (peptide)
chain: GGGLPDLICAVDSGTSGAGGGSGGSGG
notes: as for B3
Molecule B21 came in with an ELISA in assay [1] of 1160 units.

B22: phage clone displaying SEQ ID NO: 18 (S15 hit) (peptide)
chain: GGGPIFSSLPVLYCTSQLGGGSGGSGG
notes: as for B3
B22: the ELISA in assay [1] was 1420 units.

B23: phage clone displaying SEQ ID NO: 11 (S15 hit) (peptide)
chain: GGGELGLPTLLCWPTDTLGGGSGGSGG
notes: as for B3
For B23, the ELISA in [1] came out at 9380 units.

B24: phage clone displaying SEQ ID NO: 26 (S18 hit) (peptide)
chain: GGGKHCILFEKTVYCAKGGGSGGSGG
notes: as for B9
B24 returned an ELISA in assay [6] of 9110 units.

B25: phage clone P174 (SEQ ID NO: 51) (peptide)
chain: GGGSGCLDALWQCVYGGGSGGSGG
notes: pIX phagemid display, library S16; also called PP174; not shown: M13 phage coat protein pIX (MSVL...)
As for B25, in [4], the ELISA was determined as 34600 units.

B26: phage clone displaying SEQ ID NO: 24 (S18 hit) (peptide)
chain: GGGAKCIAFGNSVYCLNGGGSGGSGG
notes: as for B9
For the molecule B26, in assay [6], the ELISA worked out at 31500 units.

B27: phage clone P176 (SEQ ID NO: 48) (peptide)
chain: GGGKTCVSTTFDLWFVCFAGGGSGGSGG
notes: pIX phagemid display, library S20; also called PP176; not shown: M13 phage coat protein pIX (MSVL...)
Turning to B27, the binding result with Control-MMB (CNTO 360) [8] and with Streptavidin was “no binding” in each case. The ELISA in [5] was found to be 37400 units.

B28: phage clone P180 (SEQ ID NO: 37) (peptide)
chain: GGGMICYLVDSGNIICYKGGGSGGSGG
notes: pIX phagemid display, library S19; also called PP180; not shown: M13 phage coat protein pIX (MSVL...)
For the molecule B28, in assay [2], the ELISA worked out at 8810 units.

B29: phage clone displaying SEQ ID NO: 19 (S15 hit) (peptide)
chain: GGGGADTLPDLLCWESSLGGGSGGSGG
notes: as for B3
With B29, the ELISA in assay [1] is 5720 units.

B30: phage clone displaying SEQ ID NO: 44 (S20 hit) (peptide)
chain: GGGWMCFLEGYGASLMCQCGGGSGGSGG
notes: as for B8
Take B30: in assay [5], the ELISA was found to be 4800 units.

B31: phage clone displaying SEQ ID NO: 17 (S15 hit) (peptide)
chain: GGGPIDDESLPVLYCVTSGGGSGGSGG
notes: as for B3
For the molecule B31, in [1], the ELISA was 1780 units.

B32: phage clone displaying SEQ ID NO: 15 (S15 hit) (peptide)
chain: GGGNWFSLPTLLCFPLNPGGGSGGSGG
notes: as for B3
In [1], B32 registered an ELISA of 3670 units.

B33: phage clone displaying SEQ ID NO: 23 (S18 hit) (peptide)
chain: GGGAGCIAFVDVVYCARGGGSGGSGG
notes: as for B9
With B33, the ELISA in assay [6] came out at 6380 units.

B34: phage clone displaying SEQ ID NO: 45 (S20 hit) (peptide)
chain: GGGDSCCSFLTDGTVVCSLGGGSGGSGG
notes: as for B8
With B34, in [5], the ELISA is 9540 units.

B35: phage clone displaying SEQ ID NO: 20 (S15 hit) (peptide)
chain: GGGTVFTLPELVCVVAGTGGGSGGSGG
notes: as for B3
Turning to B35, the ELISA in assay [1] turned out to be 1520 units.

B36: phage clone displaying SEQ ID NO: 43 (S20 hit) (peptide)
chain: GGGPTCDSATRRVLTICADGGGSGGSGG
notes: as for B8
For B36, the ELISA in assay [5] amounted to 5420 units.

B37: P190-DOXIL (peptide)
peptide: DPCTWEVWGRECLQ
modifications: disulfide 3-12 (inferred); not fully specified (N-terminus); also: inserted into doxorubicin-loaded liposomes
Consider B37, for which, in assay [9], the “IC50 D4, cell killing of MDA-MB-468 cells (1 h treatment, 4 days)” value was found to be 120 µg/mL and the “IC50 D6, cell killing of MDA-MB-468 cells (1 h treatment, 6 days)” value worked out at 35 µg/mL.

B38: phage clone displaying SEQ ID NO: 28 (S18 hit) (peptide)
chain: GGGTDCIRFGVLWYCLVGGGSGGSGG
notes: as for B9
In assay [6], B38 showed an ELISA of 4750 units.

B39: phage clone displaying SEQ ID NO: 46 (S20 hit) (peptide)
chain: GGGYICTPSDIDSWYICYLGGGSGGSGG
notes: as for B8
Take B39: the ELISA in [5] amounted to 6620 units.

B40: phage clone displaying SEQ ID NO: 30 (S18 hit) (peptide)
chain: GGGAYCSFVAGDLVCQVGGGSGGSGG
notes: as for B9
Turning to B40, the ELISA in [6] was 19800 units.

B41: phage clone displaying SEQ ID NO: 47 (S20 hit) (peptide)
chain: GGGSVCVGTAFPGWMVCGPGGGSGGSGG
notes: as for B8
B41: the ELISA in assay [5] was 4770 units.

B42: phage clone displaying SEQ ID NO: 33 (S18 hit) (peptide)
chain: GGGTDCVRFGETIYCIVGGGSGGSGG
notes: as for B9
In assay [6], B42 came in with an ELISA of 13300 units.

B43: phage clone displaying SEQ ID NO: 16 (S15 hit) (peptide)
chain: GGGSTITSLPTLQCWPILGGGSGGSGG
notes: as for B3
Consider B43, for which the ELISA in assay [1] turned out to be 13300 units.
